Experiment [1] relates to mUCP1 promoter. Description: NHR-promoter luciferase screen, mUCP1 promoter. The format is cell-based, mouse. As to conditions: for Luc. act., normalized to lacZ / Normalized Luc. act., normalized to control: mUCP1 promoter reporter, co-transfected HR, with or without its ligand; for Normalized Luc. act., normalized to control: relative to control; for luciferase activity normalized to lacZ activity and to a control, mUCP!: mUCP! promoter-luciferase, CV-1 cells, NHR +/- ligand, control = 1.00. The method in brief:
(§1)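 CV-1 cells were co-transfected with 50 ng NHR (homodimer or NHR/RXR heterodimer), 100 ng promoter-luciferase construct and 50 ng LacZ. Luciferase was normalized to LacZ and to a no-NHR/no-ligand control.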

The subject of experiment [2] is hTNFa promoter. As to the kind of experiment: NHR-promoter luciferase screen, hTNFa promoter. The format is cell-based, human. Conditions: for Luc. act., normalized to lacZ / Normalized Luc. act., normalized to control: TNFa promoter, HR component without or with ligand; for hTNFa promoter reporter activity: transcription factor +/- ligand, control = 1.00. The method in brief: as §1

B1: GCNF: Germ Cell Nuclear Factor (NR6A1, GCNF1), cDNA driver (protein, UniProt Q15406 1-480, looked up)
Nuclear receptor subfamily 6 …: MERDEPPPSGGGGGGGSAGFLEPPAALPPPPRNGFCQDELAELDPGTISVSDDRAEQRTCLICGDRATGLHYGIISCEGCKGFFKRSICNKRVYRCSRDKNCVMSRKQRNRCQYCRLLKCLQMGMNRKAIREDGMPGGRNKSIGPVQISEEEIERIMSGQEFEEEANHWSNHGDSDHSSPGNRASESNQPSPGSTLSSSRSVELNGFMAFREQYMGMSVPPHYQYIPHLFSYSGHSPLLPQQARSLDPQSYSLIHQLLSAEDLEPLGTPMLIEDGYAVTQAELFALLCRLADELLFRQIAWIKKLPFFCELSIKDYTCLLSSTWQELILLSSLTVYSKQIFGELADVTAKYSPSDEELHRFSDEGMEVIERLIYLYHKFHQLKVSNEEYACMKAINFLNQDIRGLTSASQLEQLNKRYWYICQDFTEYKYTHQPNRFPDLMMCLPEIRYIAGKMVNVPLEQLPLLFKVVLHSCKTSVGKE
As for B1, in experiment [1], the “Luc. act., normalized to lacZ” value worked out at 3.8; the “Normalized Luc. act., normalized to control” value worked out at 0.8; the “luciferase activity normalized to lacZ activity and to a control, mUCP!” value (from here on “luciferase activity normalized”) came to 0.85. Besides, in experiment [2], the “Luc. act., normalized to lacZ” value was 1203.7; the “Normalized Luc. act., normalized to control” value was 1.2; the “hTNFa promoter reporter activity” value is given as 1.22.

B2: hMR: Mineralocorticoid Receptor (NR3C2, MR), cDNA driver (protein, UniProt P08235 1-984, looked up)
Mineralocorticoid receptor: METKGYHSLPEGLDMERRWGQVSQAVERSSLGPTERTDENNYMEIVNVSCVSGAIPNNSTQGSSKEKQELLPCLQQDNNRPGILTSDIKTELESKELSATVAESMGLYMDSVRDADYSYEQQNQQGSMSPAKIYQNVEQLVKFYKGNGHRPSTLSCVNTPLRSFMSDSGSSVNGGVMRAVVKSPIMCHEKSPSVCSPLNMTSSVCSPAGINSVSSTTASFGSFPVHSPITQGTPLTCSPNVENRGSRSHSPAHASNVGSPLSSPLSSMKSSISSPPSHCSVKSPVSSPNNVTLRSSVSSPANINNSRCSVSSPSNTNNRSTLSSPAASTVGSICSPVNNAFSYTASGTSAGSSTLRDVVPSPDTQEKGAQEVPFPKTEEVESAISNGVTGQLNIVQYIKPEPDGAFSSSCLGGNSKINSDSSFSVPIKQESTKHSCSGTSFKGNPTVNPFPFMDGSYFSFMDDKDYYSLSGILGPPVPGFDGNCEGSGFPVGIKQEPDDGSYYPEASIPSSAIVGVNSGGQSFHYRIGAQGTISLSRSARDQSFQHLSSFPPVNTLVESWKSHGDLSSRRSDGYPVLEYIPENVSSSTLRSVSTGSSRPSKICLVCGDEASGCHYGVVTCGSCKVFFKRAVEGQHNYLCAGRNDCIIDKIRRKNCPACRLQKCLQAGMNLGARKSKKLGKLKGIHEEQPQQQQPPPPPPPPQSPEEGTTYIAPAKEPSVNTALVPQLSTISRALTPSPVMVLENIEPEIVYAGYDSSKPDTAENLLSTLNRLAGKQMIQVVKWAKVLPGFKNLPLEDQITLIQYSWMCLSSFALSWRSYKHTNSQFLYFAPDLVFNEEKMHQSAMYELCQGMHQISLQFVRLQLTFEEYTIMKVLLLLSTIPKDGLKSQAAFEEMRTNYIKELRKMVTKCPNNSGQSWQRFYQLTKLLDSMHDLVSDLLEFCFYTFRESHALKVEFPAMLVEIISDQLPKVESGNAKPLYFHRK
Regarding B2, in experiment [1], the “Luc. act., normalized to lacZ” value stood at 2.1; the “Normalized Luc. act., normalized to control” value is 0.5; the “luciferase activity normalized” value was found to be 0.48. Further, in experiment [2], the “Luc. act., normalized to lacZ” value amounted to 614.3; the “Normalized Luc. act., normalized to control” value stood at 0.6; the “hTNFa promoter reporter activity” value is recorded as 0.62.

B3: NR4a2: NR4a2 (NR4A2; NURR1), nuclear hormone receptor cDNA driver (protein, UniProt P43354 1-598, looked up)
Nuclear receptor subfamily 4 …: MPCVQAQYGSSPQGASPASQSYSYHSSGEYSSDFLTPEFVKFSMDLTNTEITATTSLPSFSTFMDNYSTGYDVKPPCLYQMPLSGQQSSIKVEDIQMHNYQQHSHLPPQSEEMMPHSGSVYYKPSSPPTPTTPGFQVQHSPMWDDPGSLHNFHQNYVATTHMIEQRKTPVSRLSLFSFKQSPPGTPVSSCQMRFDGPLHVPMNPEPAGSHHVVDGQTFAVPNPIRKPASMGFPGLQIGHASQLLDTQVPSPPSRGSPSNEGLCAVCGDNAACQHYGVRTCEGCKGFFKRTVQKNAKYVCLANKNCPVDKRRRNRCQYCRFQKCLAVGMVKEVVRTDSLKGRRGRLPSKPKSPQEPSPPSPPVSLISALVRAHVDSNPAMTSLDYSRFQANPDYQMSGDDTQHIQQFYDLLTGSMEIIRGWAEKIPGFADLPKADQDLLFESAFLELFVLRLAYRSNPVEGKLIFCNGVVLHRLQCVRGFGEWIDSIVEFSSNLQNMNIDISAFSCIAALAMVTERHGLKEPKRVEELQNKIVNCLKDHVTFNNGGLNRPNYLSKLLGKLPELRTLCTQGLQRIFYLKLEDLVPPPAIIDKLFLDTLPF
With B3, in experiment [1], the “Luc. act., normalized to lacZ” value was found to be 4.4; the “Normalized Luc. act., normalized to control” value was found to be 1.0; the “luciferase activity normalized” value was 0.99. Further, in experiment [2], the “Luc. act., normalized to lacZ” value turned out to be 735.5; the “Normalized Luc. act., normalized to control” value was found to be 0.7; the “hTNFa promoter reporter activity” value is given as 0.75.

B4: NR4a3: NR4a3 (NR4A3; NOR1), nuclear hormone receptor cDNA driver (protein, UniProt Q92570 1-626, looked up)
Nuclear receptor subfamily 4 …: MPCVQAQYSPSPPGSSYAAQTYSSEYTTEIMNPDYTKLTMDLGSTEITATATTSLPSISTFVEGYSSNYELKPSCVYQMQRPLIKVEEGRAPSYHHHHHHHHHHHHHHQQQHQQPSIPPASSPEDEVLPSTSMYFKQSPPSTPTTPAFPPQAGALWDEALPSAPGCIAPGPLLDPPMKAVPTVAGARFPLFHFKPSPPHPPAPSPAGGHHLGYDPTAAAALSLPLGAAAAAGSQAAALESHPYGLPLAKRAAPLAFPPLGLTPSPTASSLLGESPSLPSPPSRSSSSGEGTCAVCGDNAACQHYGVRTCEGCKGFFKRTVQKNAKYVCLANKNCPVDKRRRNRCQYCRFQKCLSVGMVKEVVRTDSLKGRRGRLPSKPKSPLQQEPSQPSPPSPPICMMNALVRALTDSTPRDLDYSRYCPTDQAAAGTDAEHVQQFYNLLTASIDVSRSWAEKIPGFTDLPKEDQTLLIESAFLELFVLRLSIRSNTAEDKFVFCNGLVLHRLQCLRGFGEWLDSIKDFSLNLQSLNLDIQALACLSALSMITERHGLKEPKRVEELCNKITSSLKDHQSKGQALEPTESKVLGALVELRKICTLGLQRIFYLKLEDLVSPPSIIDKLFLDTLPF
With B4, in experiment [1], the “Luc. act., normalized to lacZ” value came out at 3.8; the “Normalized Luc. act., normalized to control” value came out at 0.9; the “luciferase activity normalized” value was determined as 0.86. Besides, in experiment [2], the “Luc. act., normalized to lacZ” value was 691.0; the “Normalized Luc. act., normalized to control” value turned out to be 0.7; the “hTNFa promoter reporter activity” value worked out at 0.70.

B5: DAX-1: DAX1 (NR0B1), cDNA driver (protein, UniProt P51843 1-470, looked up)
Nuclear receptor subfamily 0 …: MAGENHQWQGSILYNMLMSAKQTRAAPEAPETRLVDQCWGCSCGDEPGVGREGLLGGRNVALLYRCCFCGKDHPRQGSILYSMLTSAKQTYAAPKAPEATLGPCWGCSCGSDPGVGRAGLPGGRPVALLYRCCFCGEDHPRQGSILYSLLTSSKQTHVAPAAPEARPGGAWWDRSYFAQRPGGKEALPGGRATALLYRCCFCGEDHPQQGSTLYCVPTSTNQAQAAPEERPRAPWWDTSSGALRPVALKSPQVVCEAASAGLLKTLRFVKYLPCFQVLPLDQQLVLVRNCWASLLMLELAQDRLQFETVEVSEPSMLQKILTTRRRETGGNEPLPVPTLQHHLAPPAEARKVPSASQVQAIKCFLSKCWSLNISTKEYAYLKGTVLFNPDVPGLQCVKYIQGLQWGTQQILSEHTRMTHQGPHDRFIELNSTLFLLRFINANVIAELFFRPIIGTVSMDDMMLEMLCTKI
On to B5, for which, in experiment [1], the “Luc. act., normalized to lacZ” value turned out to be 6.2; the “Normalized Luc. act., normalized to control” value was found to be 1.4; the “luciferase activity normalized” value worked out at 1.39. In addition, in experiment [2], the “Luc. act., normalized to lacZ” value is 854.8; the “Normalized Luc. act., normalized to control” value stood at 0.9; the “hTNFa promoter reporter activity” value is given as 0.87.

B6: PR: Progesterone Receptor (NR3C3), cDNA driver (protein, UniProt P06401 1-933, looked up)
Progesterone receptor: MTELKAKGPRAPHVAGGPPSPEVGSPLLCRPAAGPFPGSQTSDTLPEVSAIPISLDGLLFPRPCQGQDPSDEKTQDQQSLSDVEGAYSRAEATRGAGGSSSSPPEKDSGLLDSVLDTLLAPSGPGQSQPSPPACEVTSSWCLFGPELPEDPPAAPATQRVLSPLMSRSGCKVGDSSGTAAAHKVLPRGLSPARQLLLPASESPHWSGAPVKPSPQAAAVEVEEEDGSESEESAGPLLKGKPRALGGAAAGGGAAAVPPGAAAGGVALVPKEDSRFSAPRVALVEQDAPMAPGRSPLATTVMDFIHVPILPLNHALLAARTRQLLEDESYDGGAGAASAFAPPRSSPCASSTPVAVGDFPDCAYPPDAEPKDDAYPLYSDFQPPALKIKEEEEGAEASARSPRSYLVAGANPAAFPDFPLGPPPPLPPRATPSRPGEAAVTAAPASASVSSASSSGSTLECILYKAEGAPPQQGPFAPPPCKAPGASGCLLPRDGLPSTSASAAAAGAAPALYPALGLNGLPQLGYQAAVLKEGLPQVYPPYLNYLRPDSEASQSPQYSFESLPQKICLICGDEASGCHYGVLTCGSCKVFFKRAMEGQHNYLCAGRNDCIVDKIRRKNCPACRLRKCCQAGMVLGGRKFKKFNKVRVVRALDAVALPQPVGVPNESQALSQRFTFSPGQDIQLIPPLINLLMSIEPDVIYAGHDNTKPDTSSSLLTSLNQLGERQLLSVVKWSKSLPGFRNLHIDDQITLIQYSWMSLMVFGLGWRSYKHVSGQMLYFAPDLILNEQRMKESSFYSLCLTMWQIPQEFVKLQVSQEEFLCMKVLLLLNTIPLEGLRSQTQFEEMRSSYIRELIKAIGLRQKGVVSSSQRFYQLTKLLDNLHDLVKQLHLYCLNTFIQSRALSVEFPEMMSEVIAAQLPKILAGMVKPLLFHKK
Consider B6, for which, in experiment [1], the “Luc. act., normalized to lacZ” value is 5.4; the “Normalized Luc. act., normalized to control” value is on record as 1.2; the “luciferase activity normalized” value is given as 1.21. In experiment [2], the “Luc. act., normalized to lacZ” value is reported as 1214.8; the “Normalized Luc. act., normalized to control” value is 1.2; the “hTNFa promoter reporter activity” value stood at 1.24.

B7: SHP: Small Heterodimer Partner (NR0B2), cDNA driver (protein, UniProt Q15466 1-257, looked up)
Nuclear receptor subfamily 0 …: MSTSQPGACPCQGAASRPAILYALLSSSLKAVPRPRSRCLCRQHRPVQLCAPHRTCREALDVLAKTVAFLRNLPSFWQLPPQDQRRLLQGCWGPLFLLGLAQDAVTFEVAEAPVPSILKKILLEEPSSSGGSGQLPDRPQPSLAAVQWLQCCLESFWSLELSPKEYACLKGTILFNPDVPGLQAASHIGHLQQEAHWVLCEVLEPWCPAAQGRLTRVLLTASTLKSIPTSLLGDLFFRPIIGDVDIAGLLGDMLLLR
On to B7, for which, in experiment [1], the “Luc. act., normalized to lacZ” value was 4.1; the “Normalized Luc. act., normalized to control” value stood at 0.9; the “luciferase activity normalized” value was 0.93. Moreover, in experiment [2], the “Luc. act., normalized to lacZ” value came to 914.4; the “Normalized Luc. act., normalized to control” value is 0.9; the “hTNFa promoter reporter activity” value is given as 0.93.

Source of the values: patent US20110263454A1, “Methods of Identifying Functional Characteristics of Promoters, Transcription Modifying Proteins and Transcription Modulating Agents” (Salk Institute for Biological Studies, priority 2008, published 2011).
